The experiment has as its target T1, C-terminal domain of XerD (XerDC), as part of the XerDC-FtsKγ fusion protein (E. coli, UniProt P0A8P8 111-298).
T1 construct: XerD tyrosine recombinase, E. coli, residues 111 to 298 (C-terminal, catalytic domain); also called XerD C-terminal domain; XerD portion of XerDC–γ; source: overproduced from pBad24, purified (Ni2+ resin, HiTrap heparin HP, HiTrap Q HP)
T1 sequence (looked up): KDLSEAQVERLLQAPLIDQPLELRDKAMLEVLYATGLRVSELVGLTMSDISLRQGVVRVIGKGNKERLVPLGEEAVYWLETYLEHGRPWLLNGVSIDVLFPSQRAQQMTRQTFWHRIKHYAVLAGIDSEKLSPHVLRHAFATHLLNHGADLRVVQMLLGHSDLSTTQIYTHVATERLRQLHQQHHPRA
As to the kind of experiment: crystal structure; XerDC (XerD 111-298) and FtsKγ (FtsK 1261-1329) joined on one chain by a 16 amino acid linker; hanging drop, 100 mM Bicine (pH9), 10% (w/v) polyethylene glycol 8000; molecular replacement, 2.3 Å. The note with it: both partners purified.

The values that follow come from article PMC5052618, “Activation of Xer-recombination at dif: structural basis of the FtsKγ–XerD interaction” (Scientific Reports, 2016).

B1: FtsKγ domain, as part of the XerDC-FtsKγ fusion protein (domain or fragment, E. coli, UniProt P46889 1261-1329, looked up)
chain: GAEELDPLFDQAVQFVTEKRKASISGVQRQFRIGYNRAARIIEQMEAQGIVSEQGHNGNREVLAPPPFD
notes: FtsK DNA translocase, E. coli, residues 1261 to 1329 (γ domain, very C-terminus); In the functional rows with m4 it is the γ portion of the full length XerD-FtsKγ fusion, from which the crystallised fusion was amplified; also called γ domain of FtsK; source: overproduced from pBad24, purified (Ni2+ resin, HiTrap heparin HP, HiTrap Q HP)
As for B1, the binding result is “binds”.
